# Measured values from article PMC3901395 (2013).
# Residue numbers refer to the chain shown, from its start. Like-named read-outs stand apart in the source and are kept apart here.
# B1: full-length RNF4 (natural protein)
# chain: MSTRKRRGGAINSRQAQKRTREATSTPEISLEAEPIELVETAGDEIVDLTCESLEPVVVDLTHNDSVVIVDERRRPRRNARRLPQDHADSCVVSSDDEELSRDRDVYVTTHTPRNARDEGATGLRPSGTVSCPICMDGYSEIVQNGRLIVSTECGHVFCSQCLRDSLKNANTCPTCRKKINHKRYHPIYI
# B2: RNF4-SIM domain SIM4 mutant (domain or fragment)
# chain: MSTRKRRGGAINSRQAQKRTREATSTPEISLEAEPIELVETAGDEIVDLTCESLEPVVVDLTHNDSAAAADERRRPRRNARRLPQDHADSCVVSSDDEELSRDRDVYVTTHTPRNARDEGATGLR
# B3: RNF4-SIM3/4 peptide (peptide)
# chain: LEPVVVDLTHNDSVVIVDERR
# modifications: exact peptide ends are only in Figure 2A; limits taken as SIM3 and SIM4 (VDLT, VVIV) plus short flanks; end groups unknown
# B4: RNF4 1–125 (RNF4-SIM domain, wt) (domain or fragment)
# chain: B2 chain with A67V, A68V, A69I, A70V
# B5: RNF4-SIM1/2 peptide (peptide)
# chain: EAEPIELVETAGDEIVDLTCESL
# modifications: exact peptide ends are only in Figure 2A; limits taken as SIM1 and SIM2 (IELV, VDLT) plus short flanks; end groups unknown
# B6: RNF4-SIM domain SIM1/2 double mutant (domain or fragment)
# chain: MSTRKRRGGAINSRQAQKRTREATSTPEISLEAEPAAAAETAGDEIAAAACESLEPVVVDLTHNDSVVIVDERRRPRRNARRLPQDHADSCVVSSDDEELSRDRDVYVTTHTPRNARDEGATGLR
# B7: RNF4-SIM2/3 peptide (peptide)
# chain: GDEIVDLTCESLEPVVVDLTHND
# modifications: exact peptide ends are only in Figure 2A; limits taken as SIM2 and SIM3 (VDLT, VDLT) plus short flanks; end groups unknown
# B8: RNF4-SIM domain SIM1/4 double mutant (domain or fragment)
# chain: B2 chain with I36A, E37A, L38A, V39A
# Legend:
# Test in all cases: ITC
# [1] = molecular target: T1, linear tetra-SUMO2 (4×SUMO2-ΔN11) (UniProt P61956 12-95; P61956 12-95; P61956 12-95; P61956 12-95)
# [2] = molecular target: T2, linear di-SUMO2 (2×SUMO2-ΔN11) (UniProt P61956 12-95; P61956 12-95)
# linear tri-SUMO = linear tri-SUMO (UniProt P61956 12-95; P61956 12-95; P61956 12-95)
# [3] = molecular target: T2, linear di-SUMO2 (2×SUMO2-ΔN11); remark: listed apart in the source
# mono-SUMO2 [4] = molecular target: T3, mono-SUMO2 (UniProt P61956 12-93)
# mono-SUMO1 = mono-SUMO1 (UniProt P63165 16-97)
# mono-SUMO2 [5] = molecular target: T3, mono-SUMO2; remark: listed apart in the source
# [6] = molecular target: T1, linear tetra-SUMO2 (4×SUMO2-ΔN11); remark: listed apart in the source
# T3 sequence (P61956 12-93): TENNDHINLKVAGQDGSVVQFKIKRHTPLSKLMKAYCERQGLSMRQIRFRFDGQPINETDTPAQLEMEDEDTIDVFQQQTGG
# T2 sequence (P61956 other isoform, or with tags, fused parts or gaps mutant): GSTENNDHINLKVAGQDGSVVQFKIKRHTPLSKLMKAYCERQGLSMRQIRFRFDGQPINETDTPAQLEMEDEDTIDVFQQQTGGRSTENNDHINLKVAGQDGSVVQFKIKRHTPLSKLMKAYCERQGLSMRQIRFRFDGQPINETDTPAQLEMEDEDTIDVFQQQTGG
# T1 sequence (P61956 other isoform, or with tags, fused parts or gaps mutant): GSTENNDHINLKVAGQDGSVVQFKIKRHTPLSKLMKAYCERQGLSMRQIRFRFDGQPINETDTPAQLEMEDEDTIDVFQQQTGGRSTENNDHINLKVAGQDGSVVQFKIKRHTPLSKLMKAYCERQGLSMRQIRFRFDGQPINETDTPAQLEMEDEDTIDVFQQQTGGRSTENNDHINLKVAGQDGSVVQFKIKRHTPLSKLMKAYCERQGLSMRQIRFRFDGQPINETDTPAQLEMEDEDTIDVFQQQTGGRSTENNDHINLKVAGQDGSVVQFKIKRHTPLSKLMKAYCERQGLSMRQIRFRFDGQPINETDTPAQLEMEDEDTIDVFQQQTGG
# Sequence of linear tri-SUMO (P61956 other isoform, or with tags, fused parts or gaps): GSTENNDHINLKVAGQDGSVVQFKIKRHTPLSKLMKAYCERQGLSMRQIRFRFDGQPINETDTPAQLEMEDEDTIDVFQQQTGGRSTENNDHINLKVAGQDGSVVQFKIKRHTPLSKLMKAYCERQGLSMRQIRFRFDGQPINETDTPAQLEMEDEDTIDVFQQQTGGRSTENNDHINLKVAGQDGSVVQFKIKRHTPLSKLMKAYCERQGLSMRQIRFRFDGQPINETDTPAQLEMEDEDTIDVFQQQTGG
# Sequence of mono-SUMO1 (P63165 16-97): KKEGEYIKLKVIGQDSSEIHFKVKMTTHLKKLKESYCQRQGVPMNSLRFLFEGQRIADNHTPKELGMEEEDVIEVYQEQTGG
Binder,Kd [3] [µM],Kd (mono-SUMO2 [4]) [µM],also measured
B1,,,Kd [1]: 0.8 µM; Kd [2]: 3.5 µM; Kd (linear tri-SUMO): 1.5 µM
B2,16,,
B3,72,61,
B4,,,Kd (mono-SUMO1): 123 µM; Kd (mono-SUMO2 [5]): 145 µM
B5,44,121,
B6,,,Kd [6]: 1.6 µM
B7,,106,
B8,14,,
